# Residue numbers refer to the chain shown, from its start. In names and notes the source's numbering stands.
# T1: human EphB2 extracellular region-SEAP-His protein (human, UniProt P29323 19-543)
# T1 construct: extracellular domain; also called hEphB2-SEAP-His
# T1 sequence (looked up): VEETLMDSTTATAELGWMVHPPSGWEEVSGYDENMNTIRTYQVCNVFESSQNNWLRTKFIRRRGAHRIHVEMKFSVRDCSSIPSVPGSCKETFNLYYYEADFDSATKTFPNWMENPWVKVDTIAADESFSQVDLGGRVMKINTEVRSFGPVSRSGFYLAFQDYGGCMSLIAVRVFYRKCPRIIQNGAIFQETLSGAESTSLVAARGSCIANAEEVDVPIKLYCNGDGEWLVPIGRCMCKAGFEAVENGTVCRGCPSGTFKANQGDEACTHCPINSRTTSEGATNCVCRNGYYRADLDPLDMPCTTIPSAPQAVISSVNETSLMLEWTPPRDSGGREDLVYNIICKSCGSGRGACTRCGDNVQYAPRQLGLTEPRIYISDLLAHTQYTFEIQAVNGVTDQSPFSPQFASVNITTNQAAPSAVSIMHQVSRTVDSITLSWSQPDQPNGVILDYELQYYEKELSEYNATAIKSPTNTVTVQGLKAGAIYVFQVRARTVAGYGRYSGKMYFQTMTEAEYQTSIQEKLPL
# B1: humanized antibody No. 76 (antibody, human IgG1, kappa)
# heavy: QVQLVQSGSELKKPGASVKVSCKASGYTFTDYSMHWVRQAPGQGLKWMGWINTETGEPTYAQGFTGRFVFSLDTSVSTAYLQISSLKAEDTAVYYCARIPLYYYGSRYWYFDVWGQGTTVTVSSASTKGPSVFPLAPSSKSTSGGTAALGCLVKDYFPEPVTVSWNSGALTSGVHTFPAVLQSSGLYSLSSVVTVPSSSLGTQTYICNVNHKPSNTKVDKRVEPKSCDKTHTCPPCPAPPAAAPSVFLFPPKPKDTLMISRTPEVTCVVVDVSHEDPEVQFNWYVDGVEVHNAKTKPREEQFNSTFRVVSVLTVVHQDWLNGKEYKCKVSNKGLPAPIEKTISKTKGQPREPQVYTLPPSREEMTKNQVSLTCLVKGFYPSDIAVEWESNGQPENNYKTTPPMLDSDGSFFLYSKLTVDKSRWQQGNVFSCSVMHEALHNHYTQKSLSLSPG
# light: DIQMTQSPSSLSASVGDRVTITCRASENIYRNLAWYQQKPGKAPKLLVYAATNLADGVPSRFSGSGSGTDYTLTISSLQPEDFATYYCQHFWGTPWTFGQGTKVEIKRTVAAPSVFIFPPSDEQLKSGTASVVCLLNNFYPREAKVQWKVDNALQSGNSQESVTEQDSKDSTYSLSSTLTLSKADYEKHKVYACEVTHQGLSSPVTKSFNRGEC
# notes: human Ig kappa; also called L1-4/HA2
# B2: humanized antibody No. 83 (antibody, human IgG1, kappa)
# heavy: B1 heavy with V2I
# light: B1 light with V48L, P80S
# notes: human Ig kappa; also called L1-5/HA4
# B3: humanized antibody No. 67 (antibody, human IgG1, kappa)
# heavy: B1 heavy with V2I
# light: B1 light
# notes: human Ig kappa; also called L1-4/HA4
# B4: humanized antibody No. 75 (antibody, human IgG1, kappa)
# heavy: B1 heavy with K46E
# light: B1 light
# notes: constant region: human IgG1 CH1 and hinge, human IgG2 CH2 and CH3 with V234A, G237A, no C-terminal Lys; human Ig kappa; also called L1-4/HA1
# B5: humanized antibody No. 69 (antibody, human IgG1, kappa)
# heavy: B1 heavy with V2I, Q62D, G63D, T65K
# light: B1 light
# notes: human Ig kappa; also called L1-4/HK4
# B6: humanized antibody No. 82 (antibody, human IgG1, kappa)
# heavy: B1 heavy
# light: B1 light with V48L, P80S
# notes: human Ig kappa; also called L1-5/HA2
# B7: humanized antibody No. 88 (antibody, human IgG1, kappa)
# heavy: B1 heavy
# light: B1 light with K45Q, V48L
# notes: human Ig kappa; also called L1-6/HA2
# B8: humanized antibody No. 77 (antibody, human IgG1, kappa)
# heavy: B1 heavy with K46E, Q62D, G63D, T65K
# light: B1 light
# notes: human Ig kappa; also called L1-4/HK1
# B9: humanized antibody No. 84 (antibody, human IgG1, kappa)
# heavy: B1 heavy with K46E, Q62D, G63D, T65K
# light: B1 light with V48L, P80S
# notes: human Ig kappa; also called L1-5/HK1
# B10: humanized antibody No. 86 (antibody, human IgG1, kappa)
# heavy: B1 heavy with V2I, Q62D, G63D, T65K
# light: B1 light with V48L, P80S
# notes: human Ig kappa; also called L1-5/HK4
# B11: humanized antibody No. 85 (antibody, human IgG1, kappa)
# heavy: B1 heavy with Q62D, G63D, T65K
# light: B1 light with V48L, P80S
# notes: human Ig kappa; also called L1-5/HK2
# B12: humanized antibody No. 81 (antibody, human IgG1, kappa)
# heavy: B1 heavy with K46E
# light: B1 light with V48L, P80S
# notes: human Ig kappa; also called L1-5/HA1
# B13: humanized antibody No. 78 (antibody, human IgG1, kappa)
# heavy: B1 heavy with Q62D, G63D, T65K
# light: B1 light
# notes: human Ig kappa; also called L1-4/HK2
# B14: humanized antibody No. 87 (antibody, human IgG1, kappa)
# heavy: B1 heavy with K46E
# light: B1 light with K45Q, V48L
# notes: human Ig kappa; also called L1-6/HA1
# B15: antibody A (antibody, mouse IgG1, kappa, V domains shown)
# VH: QIQLVQSGPELKKPGETVKISCKASGYTFTDYSMHWVKQAPGKGLKWMGWINTETGEPTYADDFKGRFAFSLETSASTAYLQINNLKNEDTATYFCARIPLYYYGSRYWYFDVWGAGTTVTVSS
# VL: DIQMTQSPASLSVSVGETVTITCRASENIYRNLAWYQQKQGKSPQLLVYAATNLADGVPSRFSGSGSGTQYSLKINSLQSEDFGSYYCQHFWGTPWTFGGGTKLEIKR
# notes: mouse IgG1 heavy chain, kappa light chain; purified from hybridoma supernatant; also called anti-EphA4 monoclonal antibody; antibody A-IgG
# Biological target: T2, human EphA4 extracellular region-SEAP-His protein (human, UniProt P54764 20-547)
# T2 construct: also called hEphA4-SEAP-His
# T2 sequence (P54764 20-547): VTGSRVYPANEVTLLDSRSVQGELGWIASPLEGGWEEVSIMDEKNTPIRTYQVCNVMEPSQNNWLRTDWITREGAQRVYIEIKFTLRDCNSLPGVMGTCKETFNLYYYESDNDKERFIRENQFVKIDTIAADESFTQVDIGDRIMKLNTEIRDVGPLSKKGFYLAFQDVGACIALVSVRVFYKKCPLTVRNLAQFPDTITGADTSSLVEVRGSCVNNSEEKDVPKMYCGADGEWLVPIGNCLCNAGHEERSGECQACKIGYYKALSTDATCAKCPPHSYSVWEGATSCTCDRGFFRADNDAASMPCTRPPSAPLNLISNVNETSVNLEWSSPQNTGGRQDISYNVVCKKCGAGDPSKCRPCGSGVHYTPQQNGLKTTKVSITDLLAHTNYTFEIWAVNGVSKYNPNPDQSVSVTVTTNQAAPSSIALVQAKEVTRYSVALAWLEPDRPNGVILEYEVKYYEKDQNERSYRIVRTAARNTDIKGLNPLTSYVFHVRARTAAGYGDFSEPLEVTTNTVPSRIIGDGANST
# Assay: competition ELISA, competitor human Ephrin A5-Fc
# Protocol: Each anti-EphA4 monoclonal humanized antibody obtained in Example 16 was evaluated for its inhibitory activity against the binding between human EphA4 and its human ligand according to the following steps. Each well of a 96-well plate (Nunc) was coated with an anti-alkaline phosphatase antibody (Thermo Fisher Scientific). After incubation overnight at 4° C., each well was blocked with 1% BlockAce (DS Pharma Biomedical) at room temperature for 1 hour. After washing with 0.05% Tween 20/PBS (Thermo Fisher Scientific) three times, the human EphA4 extracellular region-SEAP-His protein obtained by the method of Example 2 was added (final concentration: 10 nM) to each well and incubated at room temperature for 1 hour. After washing three times, a ligand and each serially diluted humanized antibody of antibody A (0, 0.003, 0.01, 0.03, 0.1, 0.3, 1, 3, 10, 30, 100, 300, 1000, and 3000 nM) were added to each well. The ligand used was biotinylated human Ephrin A5-Fc chimera (R&D Systems, final concentration: 0.7 nM). After incubation at room temperature for 1 hour and subsequent washing three times, horseradish peroxidase-labeled streptavidin (GE Healthcare) was added thereto and incubated at room temperature for 1 hour. After washing three times, a TMBZ (3,3′,5,5′-tetramethylbenzidine, Sigma-Aldrich) solution was added to each well and incubated at room temperature for 2 minutes. An equal amount of a reaction stopping solution (1N H₂SO₄, Wako Pure Chemical Industries) was added to each well. The absorbance at 450 nm was read using a microplate reader (PerkinElmer).
row,IC50,Binder
1,2.9 nM,B1
2,3.7 nM,B2
3,4.4 nM,B3
4,2.9 nM,B4
5,3.1 nM,B5
6,4.1 nM,B6
7,3.6 nM,B7
8,3.5 nM,B8
9,4.6 nM,B9
10,4 nM,B10
11,4 nM,B11
12,4 nM,B12
13,2.8 nM,B13
14,3 nM,B14

# Biological target: T1, human EphB2 extracellular …
# Assay: ELISA
# Protocol: Each well of a 96-well plate (Nunc) was coated with a rabbit anti-6-His antibody (Bethyl Laboratories). Each well was […] After washing with 0.05% Tween 20/PBS (Nacalai Tesque) three times, the SEAP-His protein of human EphA1, EphA2, EphA3, EphA4, EphA5, EphA6, EphA7, EphA8, EphA10, EphB1, EphB2, EphB3, EphB4, or EphB6 was added (final concentration: 1 nM) to each well and incubated at room temperature for 1 hour. After washing three times, the humanized antibody was added to each well and incubated at room temperature for 1 hour. After washing three times, a horseradish peroxidase-labeled donkey […] antibody (Jackson ImmunoResearch Laboratories) was added thereto and incubated at room temperature for 1 hour. After washing three times, TMB Microwell Peroxidase Substrate System (Kirkegaard & Perry Laboratories (KPL)) was added to each well. After confirmation of moderate color development, an equal amount of a reaction stopping solution (1N H₂SO₄, Wako Pure Chemical Industries) was added to each well. The absorbance at 450 nm was read using a microplate reader (Thermo Fisher Scientific).
row,A450 as % of hEphA4-SEAP-His,Binder
1,4.9%,B1
2,5.6%,B2
3,4.7%,B3
4,4.5%,B4
5,5.5%,B5
6,5.6%,B6
7,6%,B7
8,4.5%,B8
9,4.9%,B9
10,5.7%,B10
11,5.1%,B11
12,5%,B12
13,5.1%,B13
14,5.4%,B14

# Biological target: T2, human EphA4 extracellular …
# Assay: SPR, Ab captured
# Protocol: The binding affinity of each anti-EphA4 monoclonal humanized antibody obtained in Example 16 for human EphA4 was determined by surface plasmon resonance (SPR) using Biacore T200 (GE Healthcare). First, for the assay of antibody A, a rat anti-mouse IgG₁ antibody produced with a conventional method by immunizing rat with mouse IgG₁ antibody was immobilized on sensor chip CM5. The immobilization of the rat anti-mouse IgG1 antibody on sensor chip CM5 was performed by the amine coupling method using N-hydroxysuccinimide (NHS) and N-ethyl-N′-(3-dimethylaminopropyl)carbodiimide hydrochloride (EDC). Ethanolamine was used in blocking (the sensor chip and the reagents for immobilization were all manufactured by GE Healthcare). The antibody was diluted with a buffer solution for immobilization (10 mM sodium acetate, pH 4.5) and immobilized on the sensor chip according to the protocol attached to Biacore T200. For the assay of each humanized monoclonal antibody, a protein A chip (GE Healthcare, 29-1383-03) was used. Antibody A or the humanized monoclonal antibody was diluted with a running buffer solution HBS-EP (GE Healthcare), injected onto only flow cell 2 for 120 seconds, and captured (captured amount: approximately 30 to 60 RU). Subsequently, human EphA4 extracellular region-SEAP-His protein serially diluted in the range of 50, 16.7, 5.6, 1.9, and 0.6 nM using HBS-EP was sequentially added from the lower toward higher concentration sides without regeneration operation. Binding reaction curves were sequentially observed at the time of the addition (association phase, for 120 sec) and after the completion of the addition (dissociation phase, for 900 sec). After the completion of each observation, the sensor chip was regenerated by the addition of 3 M MgCl₂ (for 60 sec) or 10 mM Glycine-HCl pH 1.5 (for 30 sec). The obtained binding reaction curves were subjected to fitting analysis with 1:1 binding models using software BIA evaluation attached to the system to calculate the affinity (KD=kd/ka) for human EphA4 (Table 6).
Kd,koff,kon,Binder
1 nM,0.00034 s⁻¹,330000 M⁻¹ s⁻¹,B1
1.9 nM,0.00054 s⁻¹,290000 M⁻¹ s⁻¹,B2
1.1 nM,0.00035 s⁻¹,330000 M⁻¹ s⁻¹,B3
1.2 nM,0.00042 s⁻¹,380000 M⁻¹ s⁻¹,B4
1.1 nM,0.00037 s⁻¹,340000 M⁻¹ s⁻¹,B5
1.6 nM,0.00046 s⁻¹,290000 M⁻¹ s⁻¹,B6
1.4 nM,0.00042 s⁻¹,300000 M⁻¹ s⁻¹,B7
1.4 nM,0.00058 s⁻¹,410000 M⁻¹ s⁻¹,B8
1.7 nM,0.00056 s⁻¹,350000 M⁻¹ s⁻¹,B9
1.5 nM,0.00046 s⁻¹,310000 M⁻¹ s⁻¹,B10
1.6 nM,0.0005 s⁻¹,310000 M⁻¹ s⁻¹,B11
1.6 nM,0.00054 s⁻¹,340000 M⁻¹ s⁻¹,B12
1.1 nM,0.00039 s⁻¹,340000 M⁻¹ s⁻¹,B13
1.5 nM,0.00051 s⁻¹,350000 M⁻¹ s⁻¹,B14
0.6 nM,0.00025 s⁻¹,420000 M⁻¹ s⁻¹,B15
